Assay: yeast display, Sf9 membrane polyspecificity reagent, FACS + sequencing; frameworks hold sequencing errors
Summary of the method: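 Galactose-induced (36–48 hours) yeast carrying a synthetic nanobody display library were exposed to 10% biotinylated, detergent-solubilized Sf9 membrane reagent at 4 °C for 1 hour. FACS followed streptavidin microbead enrichment, using low and high (top ~1%) gates for expression (anti-HA) and reagent binding (streptavidin). Colony PCR, MiSeq 2 × 250 sequencing and CDR-length filtering followed. Labels for polyreactivity reflect the gate of origin.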

Row | Sequence | polyreactivity (PSR sort gate)
1 | QVQLVESVGGLVQAGGSLRLSCAASGSTSRIYAIGRYRKAPGKEREWVAAISRSGGSTYYADSVKGRFTISRDNAKNTVYLQMNSLKPEDTAVYYCAKDASKETSGGDYWGQGTQVTVSS | high polyreactivity
2 | QVQLVDSGGGLVQAGGSLRLSCAASGRTFLSMGWYRQAPGKERELVAAISRTNYADSVKGRFTISRDNAKNTVYLQMNSLKPEDTAVYYCAAVPKYGRYVRIGYPNDYWGQGTQVTVSS | low polyreactivity
3 | QVQIVESGGGLVQAGGSLRLSCAASGSTFDGNAMGWYRQAPGKERELVATINSDDSKNYSDSVKGSFTISRDNAKNTVYLQMNSLKPEDTAVYYCAAVVSVPELYDYWGQGTQVTVSS | low polyreactivity
4 | HVQLVESGGGLVQAGGSLRLNCAASGSTFKRNAMGWYRQATGKERELVAAISRSGGSTYYADSVKGRFTISRDNAKTTVYLQMNSLNPEDTAVYFCNALRGTASWRGYYWGQGTQVTVSS | high polyreactivity
5 | QVQLVESGGGLVQAGGSLRLSCAASGSIFSYYAMGWSRQAPGKERELVAAISSGGSRTYYADSVKGRFTISRDNAKNTVYLQMNSLKPEDTAVYYCNAPAPARYYRGHDYWGQGTQVTVSS | high polyreactivity
6 | QVKIVESGGGLVQAGGSLRLSCAASGSTYYYYSMGWYRQAPGKERELVAAITGSGTSTYYADSVKGRFTISRDNAKNTVYLQMNSLKPEYTAVYYCAAEYPWYYYIDVSYTDYGYWGQGTQVTVSS | high polyreactivity
7 | QVQLVESGGGLVQAGGRLRLSCAASGSIFPANAMGGSRQAPGKERELVAGISERGSSTYYADSVKGRFTISRDNAKNTVYLQMNSLKPEDTAVYYCAADDVGRYWSSTHNWARGDYWGQGTQVTVSS | low polyreactivity
8 | QVQLVESGGGLVQAGGSLRLSCAASGFTIRLYAMGWYRQAPGKERELVAAITSGGSTYADSVKGRFTISRDNAKNTVYLQMNSLKPEDTAVYYCNAEALVNGGYDYWGQGTQVTVSS | high polyreactivity
9 | QVQLVESGGGLVQAGGSLRLSCAASGRTFGRYAMGWYRQAHGKERELVAAISWSGGSTYYADSVKGRFTISRDNAKNTVYLQMNNLKPEDTAVYYCAAVTTDGVYAFDYWGQGTQVTVSS | low polyreactivity
10 | QVQLVESGGGLVQAGGSLRLSCAASGNTFPTYAMGWYRQAHGKERELVAAINKRGSNTYYADSVKGRFTISRDNAKNTVYLQMNSLKPEDTADYYARAAGEYDYWGQGTQVTVSS | high polyreactivity
11 | QVQLVESGGGLVQAGGSLRLSCAASGRIFYLYVMGWYRQAPGKERELVAAISIGSTTNYADSVKGRFTISRDNAKNTVYLQMNSLKPEDTAVYYCNARDGPPFYDYWGQRTQVTVSS | low polyreactivity
12 | QVQLVESGGGLVQAGGSLRLSCAASGRIFPRYAMGWYRQAPGKERELVATISSGGSTYYADSVKGRFTISRDNAKNTVYLQMNSLKPEDTAVYYCAARKRPYTVINGMDYCGQGTQVTVSS | low polyreactivity
13 | QVQLVESGGGLVQAGGSLRLSCAASGRTFGQYAMGWYRQAPGKERELVAAISTRGGSTYYADSVKGRFTISRDNAKNTVYLQLNSLKPEDTAVYYCAARQGWFAGYEYWGQGTQVTVSS | low polyreactivity
14 | QVHLVESGGGLVQAGGSLRLSCAASGRTFDVYAMGWYRQAPGKERELVATITDSGGNTYYADSVKGRFTISRDNAKNTVYLQMNSLKPEDTAVYYCAADRIYPYYRWSGAHRSDVDYWGQGTQVTVSS | low polyreactivity
15 | QFQLVESGGGLVQAGGSLRLSFAASGFIFGLYAMGWYRQAPGIETELVAAISGSGGSTYYADSVKGRFTISRDNAKNTVYLQMNSLKPEDTAVYYCNRAQGVHTYVYRYGYWGQGTQVTVSS | low polyreactivity
16 | QVQLVESGGGLVQAGGSLRLSCAASGIIFRYNTMGWYRQAPGKERELVAAISGGGRTYYADSVKGRFTISRDNAKNTVYLQMNSLKPEDTAVYYCAARYRTSGLDNYWGQGTQVTVSS | high polyreactivity
17 | QFQLVESGGGLVQAGGSLRLSCAASGRIFRSNAMVWYRQAPGKERELVAAISWSGGSTYYADSVKGRFTISRDNAKNTVYLQMNSLKPEDTAVFYCAARYRGSRYDYWGQGTQVTVSS | high polyreactivity
18 | QVQLVESGGGLVLAGGSLRLSSAASGFTFSPYAMGWYRQAPGKERELVPAISASGGRTYYADSVKGRFTISRDYAKNTVYLQMNSLKPEDTAVYYCAAKLYDSGGRYWYDYWGQGTQVTVSS | high polyreactivity
19 | QVQLVESGGALVQAGGSLRLSCGASGSTFHPYAMGWYRQAPGKERELVGAITWRVGSTYYADSVKGRFTISRDNAKNTVYLQMNSLKPEETAVYYCAVSYLSTLVRSRYDYWGQGTQVTVSS | low polyreactivity
20 | QVQLQESGGGLVQAGGSLRLSCPSSGNISIKLQMGWYRQAPGKERELVATINLGAITYYADSVKGLITISRDNAKNTVYLQVNSLKPEDTAVYYCNAQSRTWRKLGYWGQGTQVTVSS | low polyreactivity
21 | QVQLVESGGDLVQAGGSLRLSCAASGFTLTNYAMGWYRQATGKARELVAAITSSGGSTYYADSVKGRFTISRDNAKNTVYFQMNSLKPEDTAVYYCAAQGSRHFRWRYDYWGQGTQVTVSS | high polyreactivity
22 | QVQLVESGGGLVQAGGSLRLSCAATGFIFPKYAMGWYSKAPGKERELVAAISKSGGRTYYADSVKGRFTISRDNAKNTVYLQMNSLKPEDTAVYYCAAEFTYEGDSWGQGTQVTVSS | high polyreactivity

Row | Sequence | polyreactivity (PSR sort gate)
23 | QVQLVESGGGLVQAGGSLRLSCAASGSIFTGYAMGWYRPAPGKERELVAANRYTTTSTYYADSVKGRFTISRDNAKNTVYLQMHSLKPEDTAVYYCKGWRGTYSGDYWGQGTQVTVSS | high polyreactivity
24 | QVQLVESGGGLVQAGGSLRLSCAASGSIFGTNTMGWYRQAPGKEREFVAVITGSTTSTYYADSVKGRFTISRDNAKNTVYLQMNSLKPEDTAVYYCPTDYWWDLFEYDYWGQGTQVTVSS | high polyreactivity
25 | QVQLVESGGGLVQAGGSLRLSCAASGFTFGSNTMGWYRQAPGKERELVAAITYTGGRTYYADSVKGRFTISRDNAKNTVYLQMNSLKPEDTAVYYCAAEYHFWSYSPGYDYWGQGTQVTVSS | high polyreactivity
26 | QVQLVESGGGLVQAGGTLRLSCAASGIIFDQNAMGWYRQAPGKERELVAAISWSGGGTYYADSVKGRFTISRDNAKNTVYLQMNSLKPEDTAVSYCAVEDMSHAYVQHYRFGYGYWGQGTQVTVSS | low polyreactivity
27 | QVQLVESGGGLVQAGGRLRLICAASGRTFVVNAMGWYRQAPGQERELVAAITRRAGITYYADSVKGRFTISRDNAKNTVYLQMNSLKPEDTAVYYCAADRSYFPDTRTTYGYNYWGQGTQVTVSS | low polyreactivity
28 | QVQLVESGGGLVQAGGSLSLSCAASGRIFAYYAMGWYRQAPGKERELVAGISQRGSRTYYADSVKGRFTISRDNGKNTVYLQMNSLKPEDTAVYYCAARDRRSVTMDYWGQGTQVTVSS | high polyreactivity
29 | QVQLVESGGGLVQAGGSLRLSCAASGRTFWVYAMGWYRQAPGKERELVASIRRGGSTYYADSVKGRFTISRDNAKNTVYLQMNSLKPEDTAVYYCAAERPYKTFGYGYWGQGTQVTVSS | high polyreactivity
30 | QVQLVESGGGIVQAGGSLRLSCAASGITFDGYAMGWYRQAPGKERELVAGISWSGARTYYADSVKGRFTISRDNAKNTVYLLMNSLKPEDTALYYCNKVSLRNHGGYDYWGQGNQVTVSS | high polyreactivity
31 | QVQLVESGGGLVQAGGSLRLSCAASGSTFIGYDMGWYRQAPGQERELVAAISYSDGTYYADSVKGRFTISRDNAKNTVYLQMNSLKPEDTAVYYCATSYRDMGSHVGYWGQGTQLTVSS | low polyreactivity
32 | QVQLVESGGGLVQAGGSLRLSCASSGSTFKRYAMGWYRQAPGKERELVAAITLSGGNTYYADSVKGRFTISRDTAKNTVYLQLNSLKPEDTAVYYCAARRYRGYDYWGQGTQVTVTS | high polyreactivity
33 | QVQLVESGGGLVQAGGSLRLSCAASGLIFRYYVMGWYRQAPGKERDFVASISYSGGRTYYADSVKGRFTISRDYAKNTVYLQMNRLKPEDTAVYYCAGGYYYHRYSYPGDYWGQGTQVTVSS | high polyreactivity
34 | QVQLVESGGGLVQAGGSLRLSCAASGSTFPFNAMGWYRQAPGKERELVAAITTSAGSTYYADSVKGRFTISRDNAKKTVYLQMNSLKPEDTAVYYCAARYVPPWGRRYYYWGQGTQVTVSS | high polyreactivity
35 | QVQLVESGGGLVQAGGSLRLSCAASGRTFLVNAMGWYRQAPGKEREFVAAITSRSGRTNYADSVKGRFTISRDNAKNTVYLEMNSLKPEDTAVYYCNAEGYTVKYWYSRYDYWGQGTQVTVSS | high polyreactivity
36 | QVQLVESGGGLVQAGGSLRLSCAASGFIFGGYAMGWYRQAHGKEREWVAAISRSGGSTYYADSVKGRFTISRDNAKNTVYLQMNSLKPEDTAVYYCNAVPRRQGFNYWGQGTQVTVSS | high polyreactivity
37 | QVQLVESGGGLVQAGGSLRLSCAASRRIFASNAMGWNSQAPGKERELVAAITSSGGSTYYADSVKGRFTISLDNAKNTVYLQMNSLKPEDTAVYYCNAGDYYYRLVTAKPSSYDYWGQGTQVTVSS | high polyreactivity
38 | QVQHVESGGDLVQAGGSLRLSCAASGSTSFHNAMGWDIQAPGKEREFVAAMSGSGDRTNYADSVKGRFTISRDNAKNTVYLQMNSLKPEDTAVYYCAARGQPGRRTSSGFFSGGYWGQGTQVTVSS | high polyreactivity
39 | QVQLQESGGGLAQAGGSLRLICAASGTLFPADSMGWYRQAPGKERELVAGITSGANTYYADSVNGRFTISHDNAKQTVYLQMDSLIPEDIAVYYCAAPGSSTYDLESWGQGTQVNVSS | high polyreactivity
40 | QVQLVESGGGLVQAGGSLRLSCAASGLIFKYNVMGWYRQAPGKERELVAAITWGGTRTYYADSVKGRFTISRDNAKNTVYLQMNSLKPEDTAVYYCAVRSARIERNYWGQGTQVTVSS | low polyreactivity
41 | QVQLVDSGGGLVQAGGSLRLSCAASGSIFPKNAMGWYRPAPGKERELVAAISSGGGGTYYADSVKGRFTISRDNAKNTVYLQMNSLKPEDTAVFYCNKRDGNGGNTKYDYWGQGTQVTVSS | low polyreactivity
42 | QVQLVESGGGLVQAGGSLRLSCAASGFIFWRYAMGWYRQAPGKERELVATITSSGGTTHYADSVKGRFTISRDNAKNTVYLQMNSLKPEDTAVYYCATRKGVGSLYYSRNYWGQGTQVTVSS | high polyreactivity
43 | QVQLVESGGGLVQAGGSLRLICAASGFIFYYYAMGWYRQAPGKERQVVAAITWSGGITYYADSVKGRFTISRDNAKNTVYLQMISMKPEDTAVYYCATGYEYYGYSGSRRDYWGQGTQVTVSS | low polyreactivity

Source: the nanobody polyreactivity screen of Harvey et al. (2022)
